The values that follow come from paper PMC6005765 (Bioorganic & medicinal chemistry letters, 2018).

Starred links: 1 amine or outer side, 2 acyl side, 3 side chain; linkers in the order of their positions; H or OH if unused. Non-standard residues stand in square brackets, D forms with d. Residues, ends and D or L forms follow the SMILES beside them. No end group written: not given here. Phe(2-(4-MeO-phenyl)) = COc1ccc(-c2ccccc2C[C@H](N[*:1])C(=O)[*:2])cc1; Phe(2-(4-Cl-phenyl)) = O=C([C@H](Cc1ccccc1-c1ccc(Cl)cc1)N[*:1])[*:2]; Phe(2-(4-F-phenyl)) = O=C([C@H](Cc1ccccc1-c1ccc(F)cc1)N[*:1])[*:2]; Phe(3-(3-thienyl)) = O=C([C@H](Cc1cccc(-c2ccsc2)c1)N[*:1])[*:2]; Phe(4-(3-thienyl)) = O=C([C@H](Cc1ccc(-c2ccsc2)cc1)N[*:1])[*:2]; Phe(3-vinyl) = C=Cc1cccc(C[C@H](N[*:1])C(=O)[*:2])c1; Phe(4-vinyl) = C=Cc1ccc(C[C@H](N[*:1])C(=O)[*:2])cc1; Phe(2-vinyl) = C=Cc1ccccc1C[C@H](N[*:1])C(=O)[*:2]; Phe(3-Ph) = N[C@@H](Cc1cccc(-c2ccccc2)c1)C(=O)O; Phe(2-Ph) = N[C@@H](Cc1ccccc1-c1ccccc1)C(=O)O; Bip = N[C@@H](Cc1ccc(-c2ccccc2)cc1)C(=O)O; Dmt = Cc1cc(O)cc(C)c1C[C@H](N)C(=O)O; dNMeA = CN[C@H](C)C(=O)O

A word on the IC50: it is the concentration that inhibits the measured activity by half. Read a high IC50 as lower potency.

The target in experiment [1] is μ opioid receptor (UniProt P35372).
The target in experiment [2] is δ opioid receptor (UniProt P41143).
Experiment [3] deals with guinea pig ileum (GPI), MOP. The following applies: in vitro.
The target in the next experiment is μ opioid receptor (MOP) (Homo sapiens, UniProt P35372). The format is binding. The following applies: [125I]-DAMGO competition, HEK293 membranes.
Chain of μ opioid receptor (MOP) (P35372 whole entry, species assumed): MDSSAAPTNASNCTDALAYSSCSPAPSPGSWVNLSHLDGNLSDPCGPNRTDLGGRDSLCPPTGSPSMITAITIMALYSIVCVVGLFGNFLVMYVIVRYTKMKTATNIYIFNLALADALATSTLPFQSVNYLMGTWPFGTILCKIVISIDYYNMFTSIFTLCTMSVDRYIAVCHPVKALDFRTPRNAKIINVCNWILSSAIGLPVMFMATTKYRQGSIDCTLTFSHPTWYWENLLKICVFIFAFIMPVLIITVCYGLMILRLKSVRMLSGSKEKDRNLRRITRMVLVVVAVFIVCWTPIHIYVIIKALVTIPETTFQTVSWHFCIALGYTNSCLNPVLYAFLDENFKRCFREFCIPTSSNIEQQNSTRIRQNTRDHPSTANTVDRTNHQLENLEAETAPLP
For experiment [4], the target named is δ opioid receptor (UniProt P41143). This is another data set of the same source.
Experiment [5] has the same target. Kind of experiment: radioligand binding.
Experiment [6] has as its target μ opioid receptor (UniProt P35372). Briefly: radioligand binding.

Regarding DAMGO (peptide), the IC50 in the guinea pig ileum (GPI) assay with μ opioid receptor [1] is 28.3 nM. Besides, the EPAC DOP EC50 (EPAC cAMP BRET-based biosensor assay) with δ opioid receptor [2] came out at 49 nM.
Take `Cc1cc(O)cc(C)c1C[C@H](N)C(=O)N[C@H](CCCNC(=N)N)C(=O)N[C@@H](Cc1ccc(-c2ccccc2)cc1)C(=O)NCC(N)=O` [Compound 1, Dmt-D-Arg-Phe(4-phenyl)-Gly-NH2] (H-[Dmt][dR][Bip]G-NH2): the “Functional character in GPI assay” value in experiment [3] is “μ-opioid antagonism”.
The same measure, in the same setting: the entry for `Cc1cc(O)cc(C)c1C[C@H](N)C(=O)N[C@H](CCCNC(=N)N)C(=O)N[C@@H](Cc1ccc(-c2ccsc2)cc1)C(=O)NCC(N)=O` [Compound 4, Dmt-D-Arg-Phe(4-(3-thienyl))-Gly-NH2] is “μ-opioid antagonism”.
`C=Cc1ccccc1C[C@H](NC(=O)[C@@H](CCCNC(=N)N)NC(=O)[C@@H](N)Cc1c(C)cc(O)cc1C)C(=O)NCC(N)=O` [Compound 9, Dmt-D-Arg-Phe(2-vinyl)-Gly-NH2]: the “MOP IC50” value on μ opioid receptor (MOP) is given as “subnanomolar binding affinity”.
In turn, Deltorphin II (peptide) gave an IC50 in the guinea pig ileum (GPI) assay in the experiment with μ opioid receptor [1] of 854 nM.
For `Cc1cc(O)cc(C)c1C[C@H](N)C(=O)N[C@H](C)C(=O)N[C@@H](Cc1ccccc1-c1ccsc1)C(=O)NCC(N)=O` [Compound 16, Dmt-D-Ala-Phe(2-(3-thienyl))-Gly-NH2], at μ opioid receptor (MOP), the “MOP IC50” value is given as “poor affinity for MOP”.

B1: Dmt-D-Arg-Phe(2-(4-Cl-phenyl))-Gly-NH2 (peptide)
peptide: [Dmt][dR][Phe(2-(4-Cl-phenyl))]G-NH2
modifications: N-terminus assumed
SMILES: Cc1cc(O)cc(C)c1C[C@H](N)C(=O)N[C@H](CCCNC(=N)N)C(=O)N[C@@H](Cc1ccccc1-c1ccc(Cl)cc1)C(=O)NCC(N)=O
B1 came in with an IC50 in the mouse vas deferens (MVD) assay with δ opioid receptor [4] of 1.63 nM. In the experiment with μ opioid receptor [1], this molecule yielded an IC50 in the guinea pig ileum (GPI) assay of 2.39 nM.

B2: Dmt-D-Arg-Phe(3-vinyl)-Gly-NH2 (peptide)
peptide: [Dmt][dR][Phe(3-vinyl)]G-NH2
modifications: N-terminus assumed
SMILES: C=Cc1cccc(C[C@H](NC(=O)[C@@H](CCCNC(=N)N)NC(=O)[C@@H](N)Cc2c(C)cc(O)cc2C)C(=O)NCC(N)=O)c1
Turning to B2, the IC50 in the experiment with δ opioid receptor [5] worked out at 165 nM; with μ opioid receptor [6], 0.46 nM. The same molecule yielded an IC50 in the mouse vas deferens (MVD) assay with δ opioid receptor [4] of 9.74 nM. For the same molecule, the IC50 in the guinea pig ileum (GPI) assay with μ opioid receptor [1] was found to be 1.43 nM.

B3: Dmt-D-Arg-Phe(4-vinyl)-Gly-NH2 (peptide)
peptide: [Dmt][dR][Phe(4-vinyl)]G-NH2
modifications: N-terminus assumed
SMILES: C=Cc1ccc(C[C@H](NC(=O)[C@@H](CCCNC(=N)N)NC(=O)[C@@H](N)Cc2c(C)cc(O)cc2C)C(=O)NCC(N)=O)cc1
With B3, the IC50 worked out at 1420 nM with δ opioid receptor [5] and 1.82 nM with μ opioid receptor [6]. Also, in the experiment with δ opioid receptor [4], the IC50 in the mouse vas deferens (MVD) assay amounted to 430 nM. In the experiment with μ opioid receptor [1], this molecule showed an IC50 in the guinea pig ileum (GPI) assay of 24.1 nM.

B4: Dmt-N-Me-D-Ala-Phe(2-vinyl)-Gly-NH2 (peptide)
peptide: [Dmt][dNMeA][Phe(2-vinyl)]G-NH2
modifications: N-terminus assumed
SMILES: C=Cc1ccccc1C[C@H](NC(=O)[C@@H](C)N(C)C(=O)[C@@H](N)Cc1c(C)cc(O)cc1C)C(=O)NCC(N)=O
B4 registered an IC50 in the mouse vas deferens (MVD) assay with δ opioid receptor [4] of 0.689 nM. The molecule further showed an IC50 in the guinea pig ileum (GPI) assay in the experiment with μ opioid receptor [1] of 0.641 nM.

B5: Dmt-D-Arg-Phe(2-phenyl)-Gly-NH2 (peptide)
peptide: [Dmt][dR][Phe(2-Ph)]G-NH2
modifications: N-terminus assumed
SMILES: Cc1cc(O)cc(C)c1C[C@H](N)C(=O)N[C@H](CCCNC(=N)N)C(=O)N[C@@H](Cc1ccccc1-c1ccccc1)C(=O)NCC(N)=O
In the case of B5, the IC50 with δ opioid receptor [5] was found to be 20.2 nM; in the experiment with μ opioid receptor [6], 0.54 nM. This molecule also returned an IC50 in the mouse vas deferens (MVD) assay in the experiment with δ opioid receptor [4] of 6.99 nM. In the experiment with μ opioid receptor [1], this molecule displayed an IC50 in the guinea pig ileum (GPI) assay of 3.47 nM.

B6: Dmt-D-Arg-Phe(4-phenyl)-Gly-NH2 (peptide)
peptide: [Dmt][dR][Bip]G-NH2
modifications: N-terminus assumed
SMILES: Cc1cc(O)cc(C)c1C[C@H](N)C(=O)N[C@H](CCCNC(=N)N)C(=O)N[C@@H](Cc1ccc(-c2ccccc2)cc1)C(=O)NCC(N)=O
Regarding B6, the values for the IC50 in the experiment with δ opioid receptor [5] and with μ opioid receptor [6] were 42.3 nM and 7.08 nM, respectively. Further, the IC20 (partial agonist) in the mouse vas deferens (MVD) assay in the experiment with δ opioid receptor [4] was 3090 nM.

B7: Dmt-D-Ala-Phe(2-phenyl)-Gly-NH2 (peptide)
peptide: [Dmt][dA][Phe(2-Ph)]G-NH2
modifications: N-terminus assumed
SMILES: Cc1cc(O)cc(C)c1C[C@H](N)C(=O)N[C@H](C)C(=O)N[C@@H](Cc1ccccc1-c1ccccc1)C(=O)NCC(N)=O
Turning to B7, the IC50 with δ opioid receptor [5] was determined as 19.8 nM; with μ opioid receptor [6], 0.35 nM. The IC50 in the mouse vas deferens (MVD) assay with δ opioid receptor [4] was determined as 2.6 nM. Also, the IC50 in the guinea pig ileum (GPI) assay with μ opioid receptor [1] amounted to 1.6 nM.

B8: Dmt-D-Arg-Phe(4-(3-thienyl))-Gly-NH2 (peptide)
peptide: [Dmt][dR][Phe(4-(3-thienyl))]G-NH2
modifications: N-terminus assumed
SMILES: Cc1cc(O)cc(C)c1C[C@H](N)C(=O)N[C@H](CCCNC(=N)N)C(=O)N[C@@H](Cc1ccc(-c2ccsc2)cc1)C(=O)NCC(N)=O
For B8, the IC50 with δ opioid receptor [5] was found to be 309 nM; with μ opioid receptor [6] it was 5.04 nM. This molecule showed an IC20 (partial agonist) in the mouse vas deferens (MVD) assay with δ opioid receptor [4] of 3960 nM.

B9: Dmt-D-Arg-Phe(2-(4-MeO-phenyl))-Gly-NH2 (peptide)
peptide: [Dmt][dR][Phe(2-(4-MeO-phenyl))]G-NH2
modifications: N-terminus assumed
SMILES: COc1ccc(-c2ccccc2C[C@H](NC(=O)[C@@H](CCCNC(=N)N)NC(=O)[C@@H](N)Cc2c(C)cc(O)cc2C)C(=O)NCC(N)=O)cc1
In turn, B9 showed an IC50 in the mouse vas deferens (MVD) assay in the experiment with δ opioid receptor [4] of 5.23 nM. In addition, the IC50 in the guinea pig ileum (GPI) assay with μ opioid receptor [1] turned out to be 0.901 nM.

B10: Dmt-D-Arg-Phe(3-(3-thienyl))-Gly-NH2 (peptide)
peptide: [Dmt][dR][Phe(3-(3-thienyl))]G-NH2
modifications: N-terminus assumed
SMILES: Cc1cc(O)cc(C)c1C[C@H](N)C(=O)N[C@H](CCCNC(=N)N)C(=O)N[C@@H](Cc1cccc(-c2ccsc2)c1)C(=O)NCC(N)=O
As to B10, the IC50 in the experiment with δ opioid receptor [5] was 601 nM; with μ opioid receptor [6], 1.03 nM. Further, the IC35 (partial agonist) in the mouse vas deferens (MVD) assay with δ opioid receptor [4] worked out at 52.8 nM. Further, the IC50 in the guinea pig ileum (GPI) assay with μ opioid receptor [1] was 30.4 nM.

B11: Dmt-D-Arg-Phe(2-(4-F-phenyl))-Gly-NH2 (peptide)
peptide: [Dmt][dR][Phe(2-(4-F-phenyl))]G-NH2
modifications: N-terminus assumed
SMILES: Cc1cc(O)cc(C)c1C[C@H](N)C(=O)N[C@H](CCCNC(=N)N)C(=O)N[C@@H](Cc1ccccc1-c1ccc(F)cc1)C(=O)NCC(N)=O
For the molecule B11, the IC50 in the mouse vas deferens (MVD) assay with δ opioid receptor [4] came to 2.95 nM. In addition, the IC50 in the guinea pig ileum (GPI) assay with μ opioid receptor [1] came to 0.801 nM.

B12: Dmt-D-Ala-Phe(2-vinyl)-Gly-NH2 (peptide)
peptide: [Dmt][dA][Phe(2-vinyl)]G-NH2
modifications: N-terminus assumed
SMILES: C=Cc1ccccc1C[C@H](NC(=O)[C@@H](C)NC(=O)[C@@H](N)Cc1c(C)cc(O)cc1C)C(=O)NCC(N)=O
Consider B12, for which the values for the IC50 with δ opioid receptor [5] and in the experiment with μ opioid receptor [6] were 8 nM and 0.25 nM, respectively. This molecule also showed an IC50 in the mouse vas deferens (MVD) assay in the experiment with δ opioid receptor [4] of 2.81 nM. Also, the IC50 in the guinea pig ileum (GPI) assay with μ opioid receptor [1] is 1.18 nM.

B13: Dmt-D-Arg-Phe(3-phenyl)-Gly-NH2 (peptide)
peptide: [Dmt][dR][Phe(3-Ph)]G-NH2
modifications: N-terminus assumed
SMILES: Cc1cc(O)cc(C)c1C[C@H](N)C(=O)N[C@H](CCCNC(=N)N)C(=O)N[C@@H](Cc1cccc(-c2ccccc2)c1)C(=O)NCC(N)=O
B13: the IC50 in the experiment with δ opioid receptor [5] stood at 269 nM; in the experiment with μ opioid receptor [6] it was 0.85 nM. In addition, the IC40 (partial agonist) in the mouse vas deferens (MVD) assay with δ opioid receptor [4] was found to be 117 nM. Further, the IC50 in the guinea pig ileum (GPI) assay in the experiment with μ opioid receptor [1] was determined as 61.7 nM.
